# Measured values reported in paper PMC5974087, “The RPAP3-Cterminal domain identifies R2TP-like quaternary chaperones” (Nature Communications, 2018).
# B1: GFP-RPAP3-Cter [human] / SHQ1 [human (endogenous in HeLa)] (parent)
# chain 1: AQFATTVLPPIPANSFQLESDFRQLKSSPDMLYQYLKQIEPSLYPKLFQKNLDPDVFNQIVKILHDFYIEKEKPLLIFEILQRLSELKRFDMAVMFMSETEKKIARALFNHIDKSGLKDSSVEELKKRYGG
# chain 2: MLTPAFDLSQDPDFLTIAIRVPYARVSEFDVYFEGSDFKFYAKPYFLRLTLPGRIVENGSEQGSYDADKGIFTIRLPKETPGQHFEGLNMLTALLAPRKSRTAKPLVEEIGASEIPEEVVDDEEFDWEIEQTPCEEVSESALNPQCHYGFGNLRSGVLQRLQDELSDVIDIKDPDFTPAAERRQKRLAAELAKFDPDHYLADFFEDEAIEQILKYNPWWTDKYSKMMAFLEKSQEQENHATLVSFSEEEKYQLRKFVNKSYLLDKRACRQVCYSLIDILLAYCYETRVTEGEKNVESAWNIRKLSPTLCWFETWTNVHDIMVSFGRRVLCYPLYRHFKLVMKAYRDTIKILQLGKSAVLKCLLDIHKIFQENDPAYILNDLYISDYCVWIQKVKSKKLAALAEALKEVSLTKAQLGLELEELEAAALLVQEEETALKAAHSVSGQQTLCSSSEASDSEDSDSSVSSGNEDSGSDSEQDELKDSPSETVSSLQGPFLEESSAFLIVDGGVRRNTAIQESDASQGKPLASSWPLGVSGPLIEELGEQLKTTVQVSEPKGTTAVNRSNIQERDGCQTPNN
# Variants of: B1
# Assay: SILAC quantitative proteomics of GFP IP
# Conditions: with SHQ1 [human (endogenous in HeLa)]; read off a plot
row,enrichment (Log2 SILAC ratio),Variant
1,1.5,chain 1 R89A M92A
